{
  "source": "patent US8809010B2",
  "about": "“Method for prophylactic treatment of alzheimer's disease using inhibitors of glutaminyl cyclase and glutamate cyclases” (Probiodrug AG, priority 2003, dated 2014)",
  "substrate": "NC(=O)CCC(N)C(=O)Nc1ccc2ccccc2c1",
  "assay": "Continuous spectrophotometric QC assay (glutamate dehydrogenase coupled), substrate kinetics;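 further: initial rates read on a microplate reader at 30 °C, with enzyme activity quantified against an ammonia calibration curve under the same assay conditions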",
  "type": "biochemical",
  "details": "other: Human QC",
  "key": {"[1]": {"details": "0.05M Tris-HCl, pH 8.0, 0.5 M KCl, pH 8.0"}},
  "protocol": "The initial velocities were evaluated and the enzymatic activity was determined from a standard curve of ammonia under assay conditions. All samples were measured at 30° C., using either the [sequence]luor Plus or the Sunrise (both from TECAN) reader for microplates. Kinetic data was evaluated using GraFit software.",
  "data": [
    {"protein": "human QC (Homo sapiens) (protein, The cDNA of the mature QC starting with codon 38 was fused in frame with the plasmid encoded 6× histidine tag; 6xHis; made in house; host or cells: Pichia pastoris X33 (pPICZαB, secreted); also E. coli M15 (pQE-31)) VSPSASAWPEEKNYHQPAILNSSALRQIAEGTSISEMWQNDLQPLLIERYPGSPGSYAARQHIMQRIQRLQADWVLEIDTFLSQTPYGYRSFSNIISTLNPTAKRHLVLACHYDSKYFSHWNNRVFVGATDSAVPCAMMLELARALDKKLLSLKTVSDSKPDLSLQLIFFDGEEAFLHWSPQDSLYGSRHLAAKMASTPHPPGARGTSQLHGMDLLVLLDLIGAPNPTFPNFFPNSARWFERLQAIEHELHELGLLKDHSLEGRYFQNYSYGGVIQDDHIPFLRRGVPVLHLIPSPFPEVWHTMDDNEENLDESTIDNLNKILQVFVLEYLHL", "values": [
      {"measurement": "Km", "setting": "0.05M Tris-HCl, pH 8.0", "result": "76 ± 4", "unit": "µM"},
      {"measurement": "kcat", "setting": "0.05M Tris-HCl, pH 8.0", "result": "21.7 ± 0.5", "unit": "s⁻¹"},
      {"measurement": "kcat/Km", "setting": "0.05M Tris-HCl, pH 8.0", "result": "285000 ± 8000", "unit": "M⁻¹ s⁻¹"},
      {"measurement": "Km", "setting": "[1]", "result": "63 ± 3", "unit": "µM"},
      {"measurement": "kcat", "setting": "[1]", "result": "20.0 ± 0.4", "unit": "s⁻¹"},
      {"measurement": "kcat/Km", "setting": "[1]", "result": "318000 ± 9000", "unit": "M⁻¹ s⁻¹"},
      {"measurement": "Km", "setting": "pH 8.8", "result": "70 ± 3", "unit": "µM"},
      {"measurement": "kcat", "setting": "pH 8.8", "result": "20.6 ± 0.5", "unit": "s⁻¹"}
    ]}
  ]
}
